T1: FGF14-1b (aa 64-252), purified recombinant (human) (UniProt Q92915)
T1 sequence: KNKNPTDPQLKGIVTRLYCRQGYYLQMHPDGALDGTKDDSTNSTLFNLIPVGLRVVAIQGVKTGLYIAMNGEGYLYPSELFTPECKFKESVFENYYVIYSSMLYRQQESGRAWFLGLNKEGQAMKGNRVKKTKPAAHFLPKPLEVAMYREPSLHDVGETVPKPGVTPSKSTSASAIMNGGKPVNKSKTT


What was measured:
[1] = test system: Nav channels; conditions: peptide sequences derived from the LITFILKK motif of Navβ4 cytoplasmic tail; ref Grieco, Malhotra, Chen, Isom, & Raman, 2005; White et al., 2019; cited from earlier work
From the text: The presence of other accessory proteins that directly interact with Nav1.6 in the native system may contribute to the reported activity of FLPK. A critical determinant required for repetitive firing in MSN and Purkinje neurons is the Navβ4 accessory subunit (Ji et al., 2017; White et al., 2019).

[2] = target: T1, FGF14-1b (aa 64-252), purified recombinant (human); experiment: SPR; Biacore T100, 25°C; FGF14 (RU 16,000), FGF14 V160A (RU 18,000) or Nav1.6 C-tail (RU 12,000) amine-coupled on CM5 chip; peptides 1-100 µM in HBS-P+ at 50 µl/min, 180 s association, 180 s dissociation; 1:1 binding model

| Molecule | effect on fast inactivation and Na^+ currents [1] | koff [2] [s⁻¹] | kon [2] [M⁻¹ s⁻¹] |
| --- | --- | --- | --- |
| LITFILKK | prevent stable fast inactivation and generate resurgent and persistent Na^+ currents through a voltage‐dependent open‐channel block | – | – |
| FLPK [FLPK tetrapeptide] | – | 0.000431 | 84.4 |

— article PMC7363588, “Mapping of the FGF14:Nav1.6 complex interface reveals FLPK as a functionally active peptide modulating excitability” (Physiological Reports, 2020)
